Test results taken from the DeepSol protein solubility set.

Test: soluble on expression in E. coli; label from the status in PepcDB or PDB records

Sequence: AFKQLMFPFGMDSKMESGIVMPTTQFWNPIAINNVEAQNDFYSRENLAALKLLQKQAQEPEKLARLLEVYHESLGYNIVRRAEEAKVALSDQTAYCTGINLLSELIEVDVQRDEMIEAIESPKNKMTALVTEAVEQAGVKPDAIFMTGGSARSPILRDAVQTVLPNIPVVSGNYFGSVTAGLARWADVCFK
- soluble on expression in E. coli: not soluble

Sequence: WKQKVGYPTNQTWGYIAEGLFVDDNEVANSPVQFGEYGAGDIKYRDVNKDGKITDLDQVPIGYPKEPEIVYGFGASYGYKNWDISVFFQGLARESFWIDYNNVSPYFNTVDTKVVGNRVGHNALAKFIADSHWSEDNRDAYAVWPRLSPTSIENNSKTSTWFMRDGSFLRLKQLEIGYTIPEKVTNKVGIKNLRFYVTGNNLLCFSKFKLWDPEMAGAGLGYPVQRVYNVGLNLTF
- soluble on expression in E. coli: not soluble

Sequence: MAGHSHWAQIKHKKAKVDAQRGKLFSKLIREIIVATRLGGPNPEFNPRLRTAIEQAKKANMPWENIERAIKKGAGELEGEQFEEVIYEGYAPGGVAVMVLATTDNRNRTTSEVRHVFTKHGGNLGASGCVSYLFERKGYIEVPAKEVSEEELLEKAIEVGAEDVQPGEEVHIIYTVPEELYEVKENLEKLGVPIEKAQITWKPISTVQINDEETAQKVIKLLNALEELDDVQQVIANFEIPEEILQKVG
- soluble on expression in E. coli: soluble

Sequence: MSLLGRVLLFYKKGIFNDDLKKFLRSKNINVIDVRIGKYVEVDIMDDPRKVISLIGEPLFMVTEISGTFKPLFYEMRFWECHEIIEEKWREVKNKDDKKFLQAIILLCASLIKYLKGEIEVSDMLMEKALSLISDLPQELLPLLYISLGLNTEGHHHHHH
- soluble on expression in E. coli: soluble

Sequence: MVIMLATMLHSIAVGNLLPSYVKTICVDMNPSTVTKLMDRGTHQAIGVVTDVGLFLPLLYLKIKEIEAKE
- soluble on expression in E. coli: not soluble

Sequence: MRSPYLIGVFLAAGKSRRMGQNKLALPLKGENIGSLSLKTALSSRLDHVLVVERTEHASLEWIGAPYHAPPFQKRWSLHVCQDAEKGQGHSVSSGVRKAESMGADGIVILLADQPQLSVDHLNALVALAPESFAVSSFLGAFTPPIYFSSTCFPYVKGLKGDEGARRLLKSGQLGAGAVLEAKDSGELDDIDTPRGILEHHHHHH
- soluble on expression in E. coli: not soluble

Sequence: MDVDLAAPMSESEKLLYRSNLLGSDKRITNYGGGNTSAKVIETDPLTGEPAEVLWVKGSGGDVGSIRMDGFATLYMDKLNALRGIYRGGEHEDEMVAFLRHCTFNLNPRAASIDTPLHAYVPAKHVDHMHPDAIIAIAAAKDSKKLTQEIFGDRIGWLPWKRPGYELGLWLSDFCEKNPDAKGVVLESHGLFTWADDARECYERTLEIIQTAMDWFAEQTAGKPAFGGALEHHHHHH
- soluble on expression in E. coli: not soluble

Sequence: MGSDKIHHHHHHMSSSPSTLNFGSMTDVFGFLIEIDKLKSVQRRTKIIGSERHEDSAEHSWHFAVAAMALAPYAGEGVDIQRVIQMALIHDIVEIDAGDVIVYDLSARLAIHDQEVAAAARIFGLLPEPQRQQFQDLWEEYEANETPSAQFALVLDRVMPMLMNLYNGGQSWVENGIRLEQVLDRAEFIATINPELWQYMKQHLEDAKAKGWLL
- soluble on expression in E. coli: not soluble

Sequence: MGSENSALKSYTLREPPFTLPSGLAVYPAVLQDGKFASVFVYKRENEDKVNKAAKHLKTLRHPCLLRFLSCTVEADGIHLVTERVQPLEVALETLSSAEVCAGIYDILLALIFLHDRGHLTHNNVCLSSVFVSEDGHWKLGGMETVCKVSQATPEFLRSIQSIRDPASIPPEEMSPEFTTLPECHGHARDAFSFGTLVESLLTILNEQVSADVLSSFQQTLHSTLLNPIPKCRPALCTLLSHDFFRNDFLEVVNFLKSLTLKSEEEKTEFFKFLLDRVSCLSEELIASRLVPLLLNQLVFAEPVAVKSFLPYLLGPKKDHAQGETPCLLSPALFQSRVIPVLLQLFEVHEEHVRMVLLSHIEAYVEHFTQEQLKKVILPQVLLGLRDTSDSIVAITLHSLAVLVSLLGPEVVVGGERTKIFKRTAPSFTKNTDLSLEGDPFSQPIKFPINGLSDVKNTSEDSENFPSSSKKSEEWPDWSEPEEPENQTVNIQIWPREPCDDVKSQCTTLDVEESSWDDCEPSSLDTKVNPGGGITATKPVTSAEQKPIPALLSLTEESMPWKSSLPQKISLVQRGDDADQIEPPKVSSQERPLKVPSELGLGEEFTIQVKKKPVKDPEMDWFADMIPEIKPSAAFLILPELRTEMVPKKDDVSPVMQFSSKFAAAEITEGEAEGWEEEGELNWEDNNW
- soluble on expression in E. coli: soluble

Sequence: MGSDKIHHHHHHMSKIILVVAAHTDDEAMGCGGTIARHIAEGDEVHLLFMTDGVGSREVLAEEVIDRSSAAQQAAKILGVSSFTNLSFPDNRMDSVALLDIVKEVEVKISEIKPEIIYTHHIGDLNIDHQVTHKAVMTACRPQPGFSVKTIYAFEVLSSTEWQTSNSALFIPNVFIDITDYLPVKMDASKAYYNEMREVPHSRSLQHIELLARHRGYTVGVHAAEAFMLVREIK
- soluble on expression in E. coli: not soluble

Sequence: AAKRMKKRIKSATFFTTLLDFSQPGEVGAYINDTIISAIETQNNAKGYMDGRSLSVTFSLLRENSLYWNYYVDNYLKGNSPVDFDLLYWNSDSTNVSAASHNFLLRELYLENKLVQDKGVKIGGVWIDLNKIKIPSYFVSTKEDHIALWQGTYRGALHTGGNKTFVLGESGHIAGIVNHPAKNKYGYWLNDTLDDS
- soluble on expression in E. coli: not soluble

Sequence: SNAMQKSVLEQLKQVTMVVADTGDFELIKKYKPVDATTNPSLILKAVKEQKYSNLVAETISKVKANNPDLNSDDLVKEIAIEILVSFGIKILDVIEGKVSSEVDARVSFNSATTIDYAKRIIARYESNGIPKDRVLIKIAATWEGIKAAKLLQKEGINCNLTLIFDKAQAKACAEAGVYLVSPFVGRITDWQMQQNNLKTFPAIADDDGVNSVKAIYKLYKSHGFKTIVMGASFRNVEQVIALAGCDALTISPVLLEELKNRDEHLEVKLTKNDDVVTQSPQISEADFRWLMNENAMATHKLAEGIRLFTKDTIELENIIKQNL
- soluble on expression in E. coli: soluble

Sequence: YQWLPNIGSGEAGADWGLRLTSRDMGKFGLMWLNKGQYNGTKIVGEEWLNELRKSKFYSYEMGYGLHFWQVSNVENGVAAVGIGEQYIVAIPNKNAVIVTTAGNYETRSRPVLTLIQQLSSLL
- soluble on expression in E. coli: not soluble

Sequence: SQIPASEQETLVRPKPLLLKLLKSVGAQKDTYTMKEVLFYLGQYIMTKRLYDEKQQHIVYCSNDLLGDLFGVPSFSVKEHRKIYTMIYRNLVVVNQQESSDSGTSVSENHHHHHH
- soluble on expression in E. coli: soluble

Sequence: MDDRTEYDVYTDGSYVNGQYAWAYAFVKDGKVHYEDADVGKNPAAATMRNVAGEIAAALYAVKKASQLGVKIRILHDYAGIAFWATGEWKAKNEFTQAYAKLMNQYRGIYSFEKVKAHSGNEFNDYVDMKAKSALGIRDLEHHHHHH
- soluble on expression in E. coli: soluble

Sequence: MGHHHHHHSHMEGSFSDGGALPEGLAEEAEPQGAAWSGDSGTVSQSHSSASGPWEDEGAEDGAPGRDLPLLRRAAAGYAACLLPGAGARPEVEALDASLEDLLTRVDEFVGMLDMLRGDSSHVVSEGVPRIHAKAAEMRRIYSRIDRLEAFVRMVGGRVARMEEQVTKAEAELGTFPRAFKKLLHTMNVPSLFSKSAPSRPQQAGYEAPVLFRTEDYFPCCSERPQL
- soluble on expression in E. coli: not soluble

Sequence: MVHWADYIADKIIRERGEKEKYVVESGITPSGYVHVGNFRELFTAYIVGHALRDKGYEVRHIHMWDDYDRFRKVPRNVPQEWKDYLGMPISEVPDPWGCHESYAEHFMRKFEEEVEKLGIEVDLLYASELYKRGEYSEEIRLAFEKRDKIMEILNKYREIAKQPPLPENWWPAMVYCPEHRREAEIIEWDGGWKVKYKCPEGHEGWVDIRSGNVKLRWRVDWPMRWSHFGVDFEPAGKDHLVAGSSYDTGKEIIKEVYGKEAPLSLMYEFVGIKGQKGKMSGSKGNVILLSDLYEVLEPGLVRFIYARHRPNKEIKIDLGLGILNLYDEFEKVERIYFGVEGGKGDDEELRRTYELSMPKKPERLVAQAPFRFLAVLVQLPHLTEEDIINVLIKQGHIPRDLSKEDVERVKLRINLARNWVKKYAPEDVKFSILEKPPEVEVSEDVREAMNEVAEWLENHEEFSVEEFNNILFEVAKRRGISSREWFSTLYRLFIGKERGPRLASFLASLDRSFVIKRLRLEG
- soluble on expression in E. coli: soluble

Sequence: MNSPFAAETLLFERSRPRPEALRVIYGFPNTYSVGITSLGYQLVWAQLASRADVAVSRLFTDVQEPLPRDPELVGFSFSWELDYGNLLVLLEQLGIPIWQRDRHDCHPLVFGGGPVLTANPEPFADFFDVILLGDAEPLLDPFLTTMAQVRTAARSQRLEALAHVPGIYVPSLYHVSYSHPTGPIQRIEPIKASVPPTVTKQVHRGHTLAASTVVTPLAAWENIYMVEVVRSCPELCRFCLASYLTLPFRTPSLETLIPAIERGLAVTDRLGLLGASITQHPEFPALIEHLGQPQFDHVRVSLASVRTNTVTESLAQLLSQRGSQSLTIAIETGSERLRQVINKKLETEEILAAASHAQAGGLKGLKFYGMVGLPTETDADVAATVDLFCQLKKTAPRLRLTLGCSTFVPKAHTPFQWWGVQPVAEKRLKFLKKELAKLGIEFRPESYNDSLIQALISRGDRRLAPLLEQVRHYGTSLGSYRRAFKERQGQLPDFEAYVNANWPEETVLPWQHLQSGLPTKTLENHLKRAIALEHHHHHH
- soluble on expression in E. coli: not soluble

Sequence: MDPSQQTPQETVVAPVAPLLEDQLELDMKHCFENLIVIDVGANLTNKKYSRDLDSVVQRARDAGVQKLMVHGTSVKSSKEALRLSRIYPDIIYSTAGIHPHDSKSIVEEPATWFDLEHIAQAQECVAIGPCGLDYQRDFSEPDAQKQIFAKQLHLAIRLNKPLLIHERSAQLDLLEILDKFENLPPVIIRGFMGTAEEALKYLDRRFYISLTGYLCKDKSDTGVRRLLEDGTLPLDRLLVETDAPFMYPNTRASKLPQHVKTGITERSLLYLHRYCTFQRNEPCSLPAIVEMIAAFMKKSPDEVALATAFNALKLFGLSLEHHHHHH
- soluble on expression in E. coli: soluble

Sequence: MGSDKIHHHHHHMEEARIKALISLLDDEDVEVISQVEKELLAQGGSMIPFLEKEWEENFNPIVQKRIEDLVHLLQFVLLEDRLSQWKNKGGTDLMEGLWLICTYQYPDLEFNTIKSAMEQIYYEVWLDMKPDMLPLEQVKLVMNNVLFNKLKFSANTKNFHSPANSMISQVLESKKGNPISLCCIYMMVAQKLKLPVYGVNLPTLFILTYKSDDTQFYISPFHKGLIFTKEDIDNYLLQLNLAPIDLYYQPCNNIDIVARVLRNLIVSFEKLSEMERVDDVKKMLHFLTGEKY
- soluble on expression in E. coli: not soluble

Sequence: MQKETWRFIDSGNASPAFNMALDEALLYWHSEKKIPPVIRFYGWNPATLSVGYFQNIKKEINFEAVHKYNLGFVRRPTGGRGVLHDQELTYSVIVSEEHPEMPATVTEAYRVISEGILQGFRNLGLDAYFAIPRTEKEKESLKNPRSSVCFDAPSWYELVVEGRKVAGSAQTRQKGVILQHGSILLDLDEDKLFDLFLYPSERVRERMQRNFKNKAVAINELIEKRVTMDEARKAFKEGFETGLNIHLEPYELSQEELDFVHHLAETKYASDEWNYKRMAGDPLEHHHHHH
- soluble on expression in E. coli: not soluble

Sequence: MSLYEITQYRLPHLSESAEALCHADKRPVFVGDSAAKPGLQLQQDETRWHSARQHRWSTPLAHQLQRSVQRLLLADNCEGKLTVWVDDFYGSNDSRAVVAGHWEYKSQDSQTVLKGTFTESTPLKSDGYPALVNALDEAWLNVMDTISLGVGQKLAREGHHHHHH
- soluble on expression in E. coli: soluble
